Test results from patent US20240150440A1 (LUMEN BIOSCIENCE, published 2024).

Key:
[1] = biological target: T1, recombinant SARS-CoV-2 RBD with C-terminal AviTag (SARS-CoV-2, UniProt P0DTC2 319-541); assay: ELISA, competition with coated ACE2-Fc for RBD [Cont. 4]
[2] = biological target: T1, recombinant SARS-CoV-2 RBD with …; assay: BLI, biotinylated RBD on streptavidin biosensors [Cont. 4]
[3] = biological target: T1, recombinant SARS-CoV-2 RBD with …; assay: ELISA, competition with coated ACE2-Fc for RBD [Cont. 1]
[4] = biological target: T1, recombinant SARS-CoV-2 RBD with …; assay: BLI, biotinylated RBD on streptavidin biosensors; OR: over-range [Cont. 1]
[5] = biological target: T2, SARS-CoV-2 spike protein on pseudotyped lentivirus (Wuhan Reference Pseudovirus) (SARS-CoV-2, UniProt P0DTC2 14-1273); assay: cell-based or functional assay
[6] = biological target: T2, SARS-CoV-2 spike protein on pseudotyped …; assay: cell-based or functional assay; remark: listed apart in the source
[7] = biological target: T2, SARS-CoV-2 spike protein on pseudotyped …; assay: cell-based or functional assay; remark: listed apart in the source
[8] = biological target: SARS-CoV-2 Delta Variant spike protein on pseudotyped lentivirus (SARS-CoV-2 Delta variant); assay: cell-based or functional assay
[9] = biological target: T2, SARS-CoV-2 spike protein on pseudotyped …; assay: cell-based or functional assay; remark: listed apart in the source
[10] = biological target: T3, SARS-CoV-2 Delta Variant RBD (SARS-CoV-2 Delta variant); assay: ELISA, RBD coated
T3 construct: domain: RBD; coated on ELISA plates

[11] = biological target: T4, SARS-CoV-2 Alpha Variant RBD (SARS-CoV-2 Alpha variant); assay: ELISA, RBD coated
T4 construct: domain: RBD; coated on ELISA plates

[12] = biological target: T1, recombinant SARS-CoV-2 RBD with …; assay: BLI, biotinylated RBD on streptavidin biosensors [Cont. 2]
[13] = biological target: T1, recombinant SARS-CoV-2 RBD with …; assay: BLI, biotinylated RBD on streptavidin biosensors; OR: over-range [Cont. 2]
[14] = biological target: T1, recombinant SARS-CoV-2 RBD with …; assay: BLI, biotinylated RBD on streptavidin biosensors [Cont. 5]
[15] = biological target: T1, recombinant SARS-CoV-2 RBD with …; assay: ELISA, competition with coated ACE2-Fc for RBD [Cont. 5]
[16] = biological target: T2, SARS-CoV-2 spike protein on pseudotyped …; assay: cell-based or functional assay; remark: listed apart in the source
[17] = biological target: T5, SARS-CoV-2 Gamma Variant RBD (SARS-CoV-2 Gamma variant); assay: ELISA, RBD coated
T5 construct: domain: RBD; coated on ELISA plates

[18] = biological target: T6, SARS-CoV-2 Beta Variant RBD (SARS-CoV-2 Beta variant); assay: ELISA, RBD coated
T6 construct: domain: RBD; coated on ELISA plates

[19] = biological target: SARS-CoV-2 Gamma Variant spike protein on pseudotyped lentivirus (SARS-CoV-2 Gamma variant); assay: cell-based or functional assay
[20] = biological target: T2, SARS-CoV-2 spike protein on pseudotyped …; assay: cell-based or functional assay; remark: listed apart in the source
[21] = biological target: T1, recombinant SARS-CoV-2 RBD with …; assay: BLI, biotinylated RBD on streptavidin biosensors; OR: over-range
[22] = biological target: T1, recombinant SARS-CoV-2 RBD with …; assay: ELISA, competition with coated ACE2-Fc for RBD

B1: MBP-5HVZ-R5C-G2-H6 (VHH)
VHH: QVQLVESGGGLVQPGGSLRLSCAASGSATSINRMAWVRQAPGKEREWVAVIDSGGYTYYADSVKGRFTISRDNAKNTVYLQMNSLKPEDTAVYYCNAVPVTTDKTPMYQYWGQGTQVTVSS
notes: dimer
- IC50 [1]: 121 nM
- Kd [2]: 29.6 nM

B2: PP810 MBP-R2D-A6-H6 (VHH)
VHH: QVQLVESGGGLVQPGGSLRLSCAASGSGASIGAMHWFRQAPGKGREWVASITSAGNTYYGDSVKGRFTISRDNAKNTVYLQMNSLKPEDTAVYYCNALAGANYESQWEEYNYWGQGTQVTVSS
notes: Form: Monomer
- IC50 [3]: 0.1 nM
- Kd [4]: ~4600 nM
- infectivity % under 10 ug/mL VHH treatment [5]: 77.5%

B3: PP1140 MBP-4B0F-PAPA-R5d-B6-H6 (VHH)
VHH: QVQLVESGGGLVQPGGSLRLSCAASGRILAANIVHWYRQAPGKEREGVAGITSGGGSYYADSVKGRFTISRDNAKNTVYLQMNSLKPEDTAVYYCNALGLGQSSLYRSADPYDSWGQGTQVTVSS
notes: Form: Heptamer
- Pseudovirus inhibition IC50 [Cont. 5] [6]: 7.04 nM
- Pseudovirus neutralization IC50 [7]: 2.07 nM
- infectivity % under 10 ug/mL VHH treatment [5]: 2.47%

B4: PP1150 MBP-5HVZ-PAPA-R5b-G1-H6 (VHH)
VHH: QVQLVESGGGLVQPGGSLRLSCAASGSIGQIVLVHWFRQAPGKQRELVAGITSPSSTYYADSVKGRFTISRDNAKNTVYLQMNSLKPEDTAVYYCNTELEGKTQGFTGKTVWYDYWGQGTQVTVSS
notes: Form: Dimer
- Pseudovirus neutralization IC50 [7]: 2.72 nM
- Pseudovirus neutralization IC50 [8]: 0.43 nM
- Pseudovirus inhibition IC50 [Cont. 3] [9]: 2.33 nM
- EC50 [10]: 0.86 nM
- EC50 [11]: 20.1 nM
- infectivity % under 10 ug/mL VHH treatment [5]: 2.31%

B5: MBP-5HVZ-R5B-G1-H6 (VHH)
VHH: B4 VHH
- Pseudovirus inhibition IC50 [Cont. 3] [9]: 5.82 nM

B6: PP836 MBP-R5D-A1-H6 (VHH)
VHH: QVQLVESGGGLVQPGGSLRLSCAASGSISSYNAMHWFRQAPGKQREWVAGLTSSGSDGYVDSVKGRFTISRDNAKNTVYLQMNSLKPEDTAVYYCNAFSYHTYSRYDFWGQGTQVTVSS
notes: Form: Monomer
- IC50 [1]: 6.2 nM
- Kd [2]: 527 nM
- infectivity % under 10 ug/mL VHH treatment [5]: 55%

B7: PP821 MBP-R5A-D6-H6 (VHH)
VHH: QVQLVESGGGLVQPGGSLRLSCAASGNDWYINSAHWYRQAPGKEREFVASVSRGGSNNYRDSVKGRFTISRDNAKNTVYLQMNSLKPEDTAVYYCAALLETSSGDYTYWGQGTQVTVSS
notes: Form: Monomer
- Kd [12]: 100 nM
- infectivity % under 10 ug/mL VHH treatment [5]: 76.7%

B8: PP814 MBP-R2E-F4-H6 (VHH)
VHH: QVQLVESGGGLVQPGGSLRLSCAASGETFSSNAMHWFRQAPGKGREFVAAITSGGNDNYSDSVKGRFTISRDNAKNTVYLQMNSLKPEDTAVYYCNAPATEDTSHYPRNYWGQGTQVTVSS
notes: Form: Monomer
- Kd [13]: ~1600 nM
- infectivity % under 10 ug/mL VHH treatment [5]: 84.7%

B9: PP846 MBP-R5D-G6-H6 (VHH)
VHH: QVQLVESGGGLVQPGGSLRLSCAASGRILAANIVHWYRQAPGKNREGVAGITSGGSTYYADSVKGRFTISRDNAKNTVYLQMNSLKPEDTAVYYCAAKPLGSPDDFDYWGQGTQVTVSS
notes: Form: Monomer
- Kd [14]: 564 nM
- IC50 [15]: 7.5 nM
- infectivity % under 10 ug/mL VHH treatment [5]: 77.1%

B10: PP1113 MBP-5HVZ-PAPA-RN-29-H6 (VHH)
VHH: QVQLVESGGGLVQPGGSLRLSCAASGYILSENLTAWFRQAPGKAREVVATVTSGDYTNYDDSVKGRFTISRDNAKNTVYLQMNSLKPEDTAVYYCAAGTSDWEVKWSHWGQGTQVTVSS
notes: Form: Dimer
- Pseudovirus inhibition IC50 [Cont. 9] [16]: 9.38 nM
- Pseudovirus neutralization IC50 [7]: 7.09 nM
- EC50 [17]: 3.37 nM
- EC50 [11]: 0.72 nM
- EC50 [18]: 5.64 nM
- infectivity % under 10 ug/mL VHH treatment [5]: 6.25%

B11: PP1107 MBP-5HVZ-PAPA-RN-22-H6 (VHH)
VHH: QVQLVESGGGLVQPGGSLRLSCAASGSISEINLLHWFRQAPGKQREWVATMTSGGSTDYADSVKGRFTISRDNAKNTVYLQMNSLKPEDTAVYYCAADEFTKYGHGRYWGQGTQVTVSS
notes: Form: Dimer
- Pseudovirus inhibition IC50 [Cont. 9] [16]: 110 nM
- Pseudovirus neutralization IC50 [7]: 32.9 nM
- Pseudovirus neutralization IC50 [19]: 0.649 nM
- EC50 [17]: 0.18 nM
- EC50 [11]: 0.28 nM
- EC50 [18]: 0.25 nM
- infectivity % under 10 ug/mL VHH treatment [5]: 34.3%

B12: dimeric VHH (VHH-5HVZ-MBP) R2C-F6 (VHH)
VHH: QVQLVESGGGLVQPGGSLRLSCAASGRILAANIVHWYRQAPGKEREGVAGITTGGSNYYSDSVKGRFTISRDNAKNTVYLQMNSLKPEDTAVYYCNALGLGSASGSYESWGQGTQVTVSS
- IC50 [3]: 6.5 nM
- Kd [4]: ~0.96 nM
- Pseudovirus inhibition IC50 [Cont. 1] [20]: 92.4 nM

B13: PP803 MBP-R2A-F3-H6 (VHH)
VHH: QVQLVESGGGLVQPGGSLRLSCAASGSITSINWMHWFRQAPGKDREGVASISQTGRGSYADSVKGRFTISRDNAKNTVYLQMNSLKPEDTAVYYCAAASRTGTPYNYWGQGTQVTVSS
notes: Form: Monomer
- Kd [21]: ~1900 nM
- infectivity % under 10 ug/mL VHH treatment [5]: 70.7%

B14: PP807 MBP-R2C-B3-H6 (VHH)
VHH: QVQLVESGGGLVQPGGSLRLSCAASGTYASYETIAWYRQAPGKQREKVARITGAGSSFYADSVKGRFTISRDNAKNTVYLQMNSLKPEDTAVYYCNADSIPPALRAANTGYWGQGTQVTVSS
notes: Form: Monomer
- IC50 [22]: 148 nM
- Kd [21]: ~950 nM
- infectivity % under 10 ug/mL VHH treatment [5]: 75.3%

B15: PP811 MBP-R2D-D3-H6 (VHH)
VHH: QVQLVESGGGLVQPGGSLRLSCAASGHIFSINNAAWVRQAPGKSREGVATIHSGGGTYYSDSVKGRFTISRDNAKNTVYLQMNSLKPEDTAVYYCNAEVSTGAGSRGRVSDVYWGQGTQVTVSS
notes: Form: Monomer
- Kd [4]: ~27000 nM
- infectivity % under 10 ug/mL VHH treatment [5]: 75.9%

B16: PP817 MBP-R5A-B3-H6 (VHH)
VHH: QVQLVESGGGLVQPGGSLRLSCAASGQLDRSNAMAWFRQAPGKGREWVASITSGASTQYADSVKGRFTISRDNAKNTVYLQMNSLKPEDTAVYYCAADRYRAIQRTQYSWGQGTQVTVSS
notes: Form: Monomer
- Kd [13]: ~5170 nM
- infectivity % under 10 ug/mL VHH treatment [5]: 80%

B17: PP815 MBP-R5A-A1-H6 (VHH)
VHH: QVQLVESGGGLVQPGGSLRLSCAASGAELSYTAIHWFRQAPGKQREFVATINSGGSSYYADSVKGRFTISRDNAKNTVYLQMNSLKPEDTAVYYCTALLDSTYDYWGQGTQVTVSS
notes: Form: Monomer
- Kd [13]: ~2700 nM
- infectivity % under 10 ug/mL VHH treatment [5]: 84.4%

B18: PP833 MBP-R5C-F6-H6 (VHH)
VHH: QVQLVESGGGLVQPGGSLRLSCAASGQTNSILAMHWYRQAPGKQREAVATITSGSNSTYADSVKGRFTISRDNAKNTVYLQMNSLKPEDTAVYYCAARNGKLSPKANQRLYWGQGTQVTVSS
notes: Form: Monomer
- Kd [2]: 100 nM
- infectivity % under 10 ug/mL VHH treatment [5]: 86.2%
